Among the data in paper PMC12409433 are stoichiometry N values, retold here.

The target of assay [1] is Klebsiella pneumoniae N-acetylglucosamine-6-phosphate deacetylase (NagA) (Klebsiella pneumoniae). The assay is described as follows: SEC-MALS; Superdex 200 Increase 10/300 GL, 0.5 ml/min, 20°C, DAWN-Treos detector; BSA for calibration. In general terms: Size exclusion chromatography separates by hydrodynamic size, large species first.
For assay [2] the target is unchanged. The assay is described as follows: SEC; Superdex 200 Increase 10/300 GL, 20 mM Tris-HCl pH 8.0, 150 mM NaCl; apparent mass by calibration with molecular weight standards.

Broadly, the stoichiometry N is a count of units in the complex or per binding partner. “Klebsiella pneumoniae N-acetylglucosamine-6-phosphate deacetylase (NagA) (enzyme)”: the stoichiometry N in assay [1] and in assay [2] was 4 in each case.
